Measured values reported in the supplement of paper PMC10567573.

B1: EPB41L3 (parent)
chain: FRFAPNHTKELEDKVIELHKSHRG
B2: TRIM43 (parent)
chain: NRFRVEISFHFEVTNHNIRLFEDV

Variants of: B1
Test: protein stability index of a GFP-peptide fusion (GPS, HEK-293T) (PSI 1-6); higher = more stable
Conditions: c terminus: a fixed tail appended
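Also: lentivirally expressed fusions sorted by FACS into six bins by GFP to DsRed ratio, PSI derived from sequencing read proportions per bin multiplied by bin number.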

Protein stability index of substitutions, site by site:
H7: N 2.16 | T 1.91 | D 2.96 | A 2.83 | C 1.47 | Y 2.07 | I 2.09
R2: A 3.49 | W 2.88 | S 3.56 | I 2.03 | C 3.36 | V 2.36 | Q 3.89 | H 2.01 | G 3.94 | Y 3.27 | E 4.02
P5: A 2.73 | I 2.63 | C 2.4 | H 2.31 | L 2.75 | E 3.49 | Y 1.24 | R 2.15 | N 2.24 | D 3.38 | K 3.47 | G 1.98
L18: K 2.6 | C 2.9 | E 2.43 | I 2.35 | W 1.78 | A 3.07 | Q 2.53 | T 3.79 | G 2.02 | Y 1.36
G24: F 2.31 | N 2.45 | S 1.94 | Q 2.74 | R 2.05 | I 2.04 | W 1.84 | M 2.53 | T 1.73 | E 2.34 | H 1.97
F1: D 4.4 | K 4.35 | R 4.41 | A 4.17 | L 3.78 | P 3.99 | I 2.69
S21: F 1.78 | Y 2.4 | A 2.47 | M 2.14 | N 2.88 | E 2.9 | L 1.83 | H 1.71 | C 1.78
T8: R 1.92 | G 1.86 | E 2.78 | W 1.84 | H 1.74 | C 2.02 | N 2.17
H19: F 1.95 | S 2.11 | T 1.81 | P 2.72 | K 1.99 | Q 2.66 | W 1.53 | A 2.11 | V 1.89 | L 2.12 | E 2.72 | G 1.88 | D 2.07 | C 2.03
H22: C 1.95 | I 1.68 | A 1.98 | R 1.68 | F 1.92 | N 2.34 | P 2.17 | K 1.4 | Y 2.96
K14: W 1.96 | D 2.32 | M 2.01 | N 2.25 | G 2.48
E10: S 2.07 | C 1.46 | H 1.81 | L 1.9 | I 2.07 | G 2.04 | P 1.63 | D 1.9 | V 1.73 | Y 1.97 | N 1.41
K9: I 2.56 | F 2.14 | G 2.04 | P 2.15 | Q 2.11 | R 1.7 | W 2.34 | C 2.44 | N 2.39 | L 1.47
I16: F 1.77 | D 3.22 | C 2.14 | S 2.11 | E 2.95 | P 2.76 | T 2.27 | N 2.42 | M 2.1 | K 2.1 | Y 2.43 | W 2.13 | L 2.01 | A 2.46
V15: T 2.47 | F 2.46 | R 1.95 | A 2.38 | H 2.38 | N 2.27 | D 2.92 | G 2.55 | C 2.24 | E 2.23 | W 1.93 | I 2.75 | P 2.33
E12: I 1.27 | T 1.36 | S 2.41 | H 2.34 | R 1.56 | V 1.45 | L 1.97 | Y 1.22 | N 1.74 | A 1.99 | K 1.96
F3: L 3.48 | I 3.86 | V 4.42 | C 3.74 | T 3.99 | K 4.63 | H 4.03 | M 4.02 | Q 4.16
L11: R 1.92 | Y 2.05 | N 1.65 | C 2.18 | D 2.53 | V 2.25 | I 2.46 | M 1.83 | G 2.89 | T 2.21 | K 2.53 | F 2.48
K20: A 2.29 | R 1.39 | S 1.67 | W 1.54 | V 2.71 | G 2.22 | N 2.57 | F 1.55 | M 1.81
N6: C 1.97 | H 2.54 | P 2.23 | V 1.53 | E 3.17 | F 1.74 | G 2.56 | Q 2.02 | S 2.17 | T 2.08 | I 1.55
A4: M 2.65 | I 2.24 | V 1.82 | C 2.2 | Y 2.88 | W 2.41 | R 3.33 | K 3.06 | T 2.24 | P 2.98
E17: M 2.5 | H 2.04 | I 2.21 | L 1.67 | K 1.72 | W 2.18 | V 2.55 | D 2.18 | P 2.43 | A 1.74
D13: I 2.9 | C 2.65 | M 1.9 | H 1.89 | R 2.77 | V 1 | K 1.86 | T 1.67 | P 1.78 | A 1.82 | E 2.8
R23: H 1.92 | D 2.84 | V 1.83 | C 2.4 | K 2.37 | T 2.07 | Y 2.78 | I 1.72 | N 2 | L 1.92 | P 1.93 | E 3.15 | F 1.5 | W 1.54 | S 1.85

Variants of: B2
Test: as above
Conditions: c terminus: a fixed tail appended

Protein stability index, by site and new letter:
F9: D 2.27 | S 1.91 | P 2.08 | Q 1.28
H10: N 2.63 | S 3.4 | E 2.98
V5: Q 1.79 | F 2.78 | A 3.44 | P 2.8 | T 3.37 | E 1.46 | G 2.86
R19: I 2.06 | Q 2.14
E12: I 1.68 | N 1.39 | Y 2.51 | A 2.58 | L 2.91
R4: G 3.21 | E 3.4 | I 3.43 | L 2.88
F11: I 2.83 | E 1.03 | Q 2.38
V13: M 2.35
F3: C 2.54 | T 2.7 | E 1.53 | K 2.36 | N 3.43
N17: D 4.85 | I 1.37
R2: Y 2.89 | V 1.92
D23: G 3.13 | K 1.95 | I 3.66 | Q 2.92
N1: L 3.45 | D 3.89
E6: K 3.25 | S 3.18 | M 2.64 | G 2.02 | L 2.03
E22: P 2.14 | L 2.29 | T 2.66 | Q 2.31
N15: V 2.13 | M 2.49 | G 2.28
H16: A 3.14 | R 4.01 | S 2.05
T14: N 3.31 | Y 3.83 | L 2.29
L20: V 4.23 | R 3.74 | Q 3.28
I7: G 2.43 | Y 3.41 | P 1.81 | K 2.12 | F 3.57 | T 1.68 | R 2.85
I18: W 3.01 | G 2.43 | H 3.18 | P 3.07 | C 4.6
F21: R 1.88 | Y 3.98 | C 2.67
S8: R 2.43 | P 2.36 | C 2.02
V24: Q 3.09 | L 1.95 | I 2.14
